One molecule from patent US20220275098A1 can be followed below.

The target of the experiment is CD30 (analyte in SPR) (UniProt P28908). Briefly: SPR, 25° C. pH 7.4, scFv captured on chip, CD30 as analyte, average value. (In SPR one partner is held on a chip, and binding of the other changes the refractive index at the surface.)
CD30 (analyte in SPR), sequence (P28908 19-379 limits assumed): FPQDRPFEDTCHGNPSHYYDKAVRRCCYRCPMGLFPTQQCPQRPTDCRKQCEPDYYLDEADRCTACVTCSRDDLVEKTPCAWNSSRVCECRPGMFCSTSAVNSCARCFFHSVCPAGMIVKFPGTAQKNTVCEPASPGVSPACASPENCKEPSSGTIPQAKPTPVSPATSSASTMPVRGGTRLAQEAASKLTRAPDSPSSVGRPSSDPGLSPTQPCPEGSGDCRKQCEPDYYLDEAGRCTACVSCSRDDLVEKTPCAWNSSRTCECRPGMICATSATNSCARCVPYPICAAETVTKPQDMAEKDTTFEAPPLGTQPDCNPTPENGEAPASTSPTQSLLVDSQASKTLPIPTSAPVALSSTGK

B1: anti-CD30 clone 52-2 scFv (scFv, part only; not given: Linker, domain order, tag, V domains shown, not shown: another chain or arm of the molecule; small tags and cut ends)
VH: EVQLVESGGGLVQPGGSLRLSCAASGFTFSSYYMHWVRQAPGKGLEWVSAISWSGGSTYYADSVKGRFTISRDNSKNTLYLQMNSLRAEDTAVYYCARDRFMPFIPNTLGFDVWGQGTLVTVSS
VL: DIQMTQSPSSLSASVGDRVTITCQASQDISNYLNWYQQKPGKAPKLLIYVASNLETGVPSRFSGSGSGTDFTFTISSLQPEDIATYYCQQDADVPLTFGQGTKVEIK
By Kd is commonly meant the concentration at which binding is half-saturated. The low end stands for a tighter complex, the high end for a looser complex. B1 returned an equilibrium dissociation constant (Kd) of 0.8 nM.
